Columns and labels:
[1] = target: T1, protein tyrosine kinase-7 (PTK7) ((Jurkat T-cells)) (UniProt Q13308); experiment: competition (AFM single-molecule force spectroscopy); conditions: 1 uM free sgc8c blocks; 38.3% before block; Aptamer tips prepared and stored in PBS; fixed Jurkat T-cells on Cell-Tak glass; pulling speeds 500-24000 nm/s; measurement buffer, pH and temperature not …; scale: % residual binding probability of tip sgc8c
T1 sequence: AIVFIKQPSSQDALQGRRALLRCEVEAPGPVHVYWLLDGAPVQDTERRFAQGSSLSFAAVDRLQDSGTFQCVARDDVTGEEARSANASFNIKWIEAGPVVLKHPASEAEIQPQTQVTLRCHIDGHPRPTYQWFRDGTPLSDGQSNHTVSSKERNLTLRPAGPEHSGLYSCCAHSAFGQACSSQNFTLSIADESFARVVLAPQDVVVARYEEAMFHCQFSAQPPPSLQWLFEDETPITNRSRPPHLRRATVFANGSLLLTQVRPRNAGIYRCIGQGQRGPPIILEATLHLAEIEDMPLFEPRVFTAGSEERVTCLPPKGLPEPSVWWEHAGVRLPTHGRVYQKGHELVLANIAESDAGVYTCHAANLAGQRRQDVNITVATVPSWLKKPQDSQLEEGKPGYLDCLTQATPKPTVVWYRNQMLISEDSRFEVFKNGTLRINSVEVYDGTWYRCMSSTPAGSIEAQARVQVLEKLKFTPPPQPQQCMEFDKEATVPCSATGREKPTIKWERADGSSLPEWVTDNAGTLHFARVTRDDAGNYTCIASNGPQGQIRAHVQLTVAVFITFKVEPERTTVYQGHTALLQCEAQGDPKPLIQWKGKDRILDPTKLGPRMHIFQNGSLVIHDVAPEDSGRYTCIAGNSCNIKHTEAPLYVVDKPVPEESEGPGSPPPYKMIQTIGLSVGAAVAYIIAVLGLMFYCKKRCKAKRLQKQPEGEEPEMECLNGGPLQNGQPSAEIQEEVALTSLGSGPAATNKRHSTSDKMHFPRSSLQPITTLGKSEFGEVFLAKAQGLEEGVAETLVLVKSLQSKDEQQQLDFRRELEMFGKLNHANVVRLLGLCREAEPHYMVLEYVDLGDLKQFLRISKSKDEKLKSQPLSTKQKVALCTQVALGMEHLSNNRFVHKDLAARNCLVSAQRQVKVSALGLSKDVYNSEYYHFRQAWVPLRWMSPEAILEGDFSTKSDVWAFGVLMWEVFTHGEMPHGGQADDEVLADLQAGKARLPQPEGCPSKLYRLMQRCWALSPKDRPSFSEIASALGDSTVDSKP

[2] = target: T1, protein tyrosine kinase-7 (PTK7) ((Jurkat T-cells)); experiment: AFM single-molecule force spectroscopy; conditions: fixed Jurkat T-cells on Cell-Tak glass, pulling speeds 500-24000 nm/s, measurement buffer, pH and temperature not …
[3] = target: T1, protein tyrosine kinase-7 (PTK7) ((Jurkat T-cells)); experiment: cited value; conditions: 5' NH2 or 5' SH; Aptamer tips prepared and stored in PBS; fixed Jurkat T-cells on Cell-Tak glass; pulling speeds 500-24000 nm/s; measurement buffer, pH and temperature not …; cited from earlier work

Sequence: ATCTAACTGCTGCGCCGCGAAAATACTGTACGGTTAGA [sgc8c (free)]
- binding signal [1]: 10.2

Sequence: CACCGGGAGGATAGTTCGGTGGCTGTTCAGGGTCTCCTCCCGGTG [TDO5]
- binding signal (% binding probability) ([2]; background level, stated not to bind PTK7, 5' NH2, Aptamer tips prepared and stored in PBS): 8.27

Sequence: ATCTAACTGCTGCGCCGCGAAAATACTGTACGGTTAGA [sgc8c (tip-tethered)]
- Kd [3]: 0.8 nM
- binding signal (% binding probability) ([2]; koff 5.16 ± 0.19 s-1, x_beta 0.65 ± 0.01 Å, 5' NH2 or 5' SH, Aptamer tips prepared and stored in PBS): 38.3

Source: publication PMC5366180
